Test [1] has as its target yeast-displayed human LIF (hLIF, Ser23 to Phe203) (human) (UniProt P15018). Description: not stated; Supplementary Fig. 7b, not shown; told only in the discussion.
For test [2], the target named is yeast-displayed eLIFR CBM I–Ig-like domains ('VPRVVAID') (human). Description: flow cytometry on cells; LIFR constructs displayed on yeast (EBY100), soluble tagged cytokine (LIF-His and others) in PBS with 1 mg/ml BSA, detected by antibody to the tag; gated on c-myc-positive yeast; apparent affinity by non-linear regression. For orientation: Flow cytometry measures light scatter and fluorescence of single cells or particles in a stream.

Test [3] addresses yeast-displayed mouse LIFR (mouse) (UniProt P42703). Description: flow cytometry on cells; receptor displayed on yeast, soluble cytokine titrated in PBS with 1 mg/ml BSA; bound cytokine detected by fluorescent antibodies; apparent Kd by non-linear regression.
In test [4] the target is recombinant human LIF, histidine-tagged (hLIF-His) (UniProt P15018). Description: flow cytometry of yeast-displayed LIFR variants. Conditions: read off a plot.

Sequence of mLIFR-Fc (mouse LIFR CBM I–Ig-like–CBM II fused to an antibody Fc domain) (P42703 44-529): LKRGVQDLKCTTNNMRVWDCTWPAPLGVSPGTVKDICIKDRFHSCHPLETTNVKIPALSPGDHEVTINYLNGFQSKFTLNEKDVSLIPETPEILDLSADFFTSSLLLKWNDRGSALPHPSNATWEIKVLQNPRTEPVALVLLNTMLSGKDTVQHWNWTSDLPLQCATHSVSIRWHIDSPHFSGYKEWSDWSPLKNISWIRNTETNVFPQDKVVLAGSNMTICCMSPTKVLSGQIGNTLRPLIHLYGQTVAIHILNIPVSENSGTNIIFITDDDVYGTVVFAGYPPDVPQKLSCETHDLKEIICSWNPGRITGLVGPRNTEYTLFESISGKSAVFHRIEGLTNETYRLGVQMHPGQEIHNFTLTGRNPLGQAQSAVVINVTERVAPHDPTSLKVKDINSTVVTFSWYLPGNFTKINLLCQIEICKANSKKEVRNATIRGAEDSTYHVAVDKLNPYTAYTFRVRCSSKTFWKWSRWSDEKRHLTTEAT
Sequence of yeast-displayed mouse LIFR (mouse) (P42703 44-1092): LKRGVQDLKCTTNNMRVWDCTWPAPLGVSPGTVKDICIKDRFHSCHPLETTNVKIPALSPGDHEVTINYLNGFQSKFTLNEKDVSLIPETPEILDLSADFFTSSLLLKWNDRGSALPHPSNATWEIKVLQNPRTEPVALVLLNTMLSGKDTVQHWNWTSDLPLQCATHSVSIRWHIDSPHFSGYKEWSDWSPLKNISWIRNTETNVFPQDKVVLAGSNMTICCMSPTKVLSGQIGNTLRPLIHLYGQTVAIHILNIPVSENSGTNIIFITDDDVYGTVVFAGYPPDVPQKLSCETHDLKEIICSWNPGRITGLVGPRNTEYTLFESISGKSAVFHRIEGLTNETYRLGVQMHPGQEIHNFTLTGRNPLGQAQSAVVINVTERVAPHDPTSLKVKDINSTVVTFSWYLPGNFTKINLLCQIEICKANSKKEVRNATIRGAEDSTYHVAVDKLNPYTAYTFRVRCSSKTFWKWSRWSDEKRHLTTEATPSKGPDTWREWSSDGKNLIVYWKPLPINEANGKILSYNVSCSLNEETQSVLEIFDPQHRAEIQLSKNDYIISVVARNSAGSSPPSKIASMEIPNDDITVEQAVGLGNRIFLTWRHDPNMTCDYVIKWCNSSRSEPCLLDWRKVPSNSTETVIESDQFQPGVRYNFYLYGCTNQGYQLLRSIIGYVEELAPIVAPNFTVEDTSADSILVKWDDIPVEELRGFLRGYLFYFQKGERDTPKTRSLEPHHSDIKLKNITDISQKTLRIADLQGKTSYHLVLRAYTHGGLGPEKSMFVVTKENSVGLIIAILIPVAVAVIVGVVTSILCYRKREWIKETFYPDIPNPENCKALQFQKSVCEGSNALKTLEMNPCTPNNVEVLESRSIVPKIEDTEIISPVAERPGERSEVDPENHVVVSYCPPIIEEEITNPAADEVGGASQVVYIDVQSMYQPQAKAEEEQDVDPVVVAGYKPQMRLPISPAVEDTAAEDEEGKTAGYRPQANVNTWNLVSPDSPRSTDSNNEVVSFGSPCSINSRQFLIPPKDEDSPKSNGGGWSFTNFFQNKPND
Sequence of yeast-displayed wild-type human LIFR CBM I–Ig-like domains (Gln45 to Gln337) (P42702 45-337, stated change not applied): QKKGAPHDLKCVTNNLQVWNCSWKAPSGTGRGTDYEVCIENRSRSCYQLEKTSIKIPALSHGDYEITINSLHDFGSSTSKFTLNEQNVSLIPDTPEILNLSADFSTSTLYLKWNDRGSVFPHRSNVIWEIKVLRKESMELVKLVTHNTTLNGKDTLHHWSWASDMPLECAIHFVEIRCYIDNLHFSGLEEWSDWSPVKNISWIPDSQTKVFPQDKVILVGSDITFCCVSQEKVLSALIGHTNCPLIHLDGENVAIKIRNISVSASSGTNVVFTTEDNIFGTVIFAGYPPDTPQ

As to “mLIFR-Fc (mouse LIFR CBM I–Ig-like–CBM II fused to an antibody Fc domain) (from UniProt P42703 44-529) (Fc fusion)”, in test [1], the Kd worked out at 1 pM. With “recombinant human LIF, histidine-tagged (hLIF-His) (from UniProt P15018 23-202) (ligand)”, the Kd in test [2] was determined as 40 pM. As for “recombinant human LIF-His (from UniProt P15018 23-202) (ligand)”, in test [3], the Kd came out at 1.1 pM. As to “yeast-displayed wild-type human LIFR CBM I–Ig-like domains (Gln45 to Gln337) (from UniProt P42702) PRDSAID”, the ratio to parent in test [4] turned out to be 5.2.
